In series [1] the target is T1, authentic Hsp26 from yeast (S. cerevisiae), P15992.
T1 chain: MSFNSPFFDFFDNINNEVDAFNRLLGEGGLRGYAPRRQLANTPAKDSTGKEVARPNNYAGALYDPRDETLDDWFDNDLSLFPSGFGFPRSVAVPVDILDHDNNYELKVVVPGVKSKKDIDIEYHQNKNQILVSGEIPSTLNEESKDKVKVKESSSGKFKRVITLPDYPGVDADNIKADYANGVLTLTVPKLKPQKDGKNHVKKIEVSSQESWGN
Briefly: cryo-EM structure; 2.0-3.3 mg/ml protein plunge-frozen, Titan Krios 300 kV, K2; 2D class averages (IMAGIC) compared with 40mer reprojections, 3D reconstruction in cryoSPARC. As to conditions: remark: other sources report otherwise.

Series [2] deals with the molecule itself. Kind of series: CD thermal transition; far-UV CD at 218 nm, 12.5 µM protein in PBS, 20 to 90 °C at 1 K/min; the lower transition is taken as the disassembly of the oligomer.
Series [3] deals with the molecule itself. Briefly: cryo-EM structure; 2.0-3.3 mg/ml protein plunge-frozen, Titan Krios 300 kV, K2; 2D class averages (IMAGIC) compared with 40mer reprojections, 3D reconstruction in cryoSPARC.
Series [4] deals with Hsp26 FRET complex (5 µM LYI-labeled and 5 µM AIAS-labeled Hsp26 S5C, pre-formed at 40 °C) (S. cerevisiae) (UniProt P15992). Kind of series: FRET or BRET; subunit exchange: unlabeled Hsp26 in 39-fold molar excess added to the pre-formed FRET complex, 40 °C, decrease of acceptor fluorescence at 520 nm for 1500 s, exponential fit, kexchange = 1/t1.
Series [5] concerns the molecule itself. Briefly: cryo-EM structure; S207E dataset; asymmetric heterogeneous refinement (3D classification) in cryoSPARC into 13 classes; class C13.
Series [6] concerns the molecule itself. Kind of series: AUC; sedimentation velocity, 23 µM protein, 35,000 rpm (98,500 × g), 20 °C, PBS, absorbance at 280 nm, c(S) distribution in SEDFIT.
Series [7] deals with the molecule itself. Briefly: SEC; analytical SEC-HPLC, Superdex200 increase 10/300GL, PBS, 0.5 ml/min, RT, 20 µl of a 20 µM protein solution loaded.

B1: authentic Hsp26 from yeast, P15992 1-214 (natural protein)
chain: MSFNSPFFDFFDNINNEVDAFNRLLGEGGLRGYAPRRQLANTPAKDSTGKEVARPNNYAGALYDPRDETLDDWFDNDLSLFPSGFGFPRSVAVPVDILDHDNNYELKVVVPGVKSKKDIDIEYHQNKNQILVSGEIPSTLNEESKDKVKVKESSSGKFKRVITLPDYPGVDADNIKADYANGVLTLTVPKLKPQKDGKNHVKKIEVSSQESWGN
For B1, the stoichiometry N in series [1] was determined as 40.

B2: Hsp26 wild-type (WT) protein, recombinant (natural protein, S. cerevisiae)
chain: MGSFNSPFFDFFDNINNEVDAFNRLLGEGGLRGYAPRRQLANTPAKDSTGKEVARPNNYAGALYDPRDETLDDWFDNDLSLFPSGFGFPRSVAVPVDILDHDNNYELKVVVPGVKSKKDIDIEYHQNKNQILVSGEIPSTLNEESKDKVKVKESSSGKFKRVITLPDYPGVDADNIKADYANGVLTLTVPKLKPQKDGKNHVKKIEVSSQESWGN
notes: Hsp26, small heat shock protein of S. cerevisiae; HSP26 cloned into pQE60 with NcoI and HindIII, which adds a glycine after the start methionine; Forms an ensemble of oligomers, predominantly a 40mer; also called Hsp26 WT; source: E. coli HB101, purified (Q-Sepharose, Superdex200, Resource Q)
Turning to B2, the “dissociation temperature of the oligomer” value in series [2] is 42.1 °C. For the same molecule, in series [3], the “fraction of particles representing 40mer views” value (shortened to “fraction”) was found to be 48.9% and the “stoichiometry N” value worked out at 40. This molecule had an exchange constant in series [4] of 0.0032 s⁻¹.

B3: Hsp26 T42E (natural protein, S. cerevisiae)
chain: MGSFNSPFFDFFDNINNEVDAFNRLLGEGGLRGYAPRRQLANEPAKDSTGKEVARPNNYAGALYDPRDETLDDWFDNDLSLFPSGFGFPRSVAVPVDILDHDNNYELKVVVPGVKSKKDIDIEYHQNKNQILVSGEIPSTLNEESKDKVKVKESSSGKFKRVITLPDYPGVDADNIKADYANGVLTLTVPKLKPQKDGKNHVKKIEVSSQESWGN
notes: Hsp26 of S. cerevisiae, phospho-mimetic mutant in pQE60::HSP26; source: E. coli HB101, purified (Q-Sepharose, Superdex200, Resource Q)
In the case of B3, the “dissociation temperature of the oligomer” value in series [2] is below 40 °C.

B4: Hsp26 S207E (natural protein, S. cerevisiae, UniProt P15992 1-214, looked up)
chain: MGSFNSPFFDFFDNINNEVDAFNRLLGEGGLRGYAPRRQLANTPAKDSTGKEVARPNNYAGALYDPRDETLDDWFDNDLSLFPSGFGFPRSVAVPVDILDHDNNYELKVVVPGVKSKKDIDIEYHQNKNQILVSGEIPSTLNEESKDKVKVKESSSGKFKRVITLPDYPGVDADNIKADYANGVLTLTVPKLKPQKDGKNHVKKIEVESQESWGN
notes: an additional glycine stands after the start methionine; phospho-mimetic mutant of the C-terminal region; predominant species a 40mer, one 3D class a 42mer; source: E. coli HB101, purified (Q-Sepharose, Superdex200, Resource Q)
On to B4, for which the “stoichiometry N” value in series [5] amounted to 42.

B5: Hsp26 T48E (natural protein, S. cerevisiae)
chain: MGSFNSPFFDFFDNINNEVDAFNRLLGEGGLRGYAPRRQLANTPAKDSEGKEVARPNNYAGALYDPRDETLDDWFDNDLSLFPSGFGFPRSVAVPVDILDHDNNYELKVVVPGVKSKKDIDIEYHQNKNQILVSGEIPSTLNEESKDKVKVKESSSGKFKRVITLPDYPGVDADNIKADYANGVLTLTVPKLKPQKDGKNHVKKIEVSSQESWGN
notes: as for B3
On to B5, for which the “dissociation temperature of the oligomer” value in series [2] was below 40 °C.

B6: Hsp26 S47E (natural protein, S. cerevisiae)
chain: MGSFNSPFFDFFDNINNEVDAFNRLLGEGGLRGYAPRRQLANTPAKDETGKEVARPNNYAGALYDPRDETLDDWFDNDLSLFPSGFGFPRSVAVPVDILDHDNNYELKVVVPGVKSKKDIDIEYHQNKNQILVSGEIPSTLNEESKDKVKVKESSSGKFKRVITLPDYPGVDADNIKADYANGVLTLTVPKLKPQKDGKNHVKKIEVSSQESWGN
notes: as for B3
As to B6, the binding result in series [6] is recorded as “binds”.

B7: Hsp26 S90E (natural protein, S. cerevisiae)
chain: MGSFNSPFFDFFDNINNEVDAFNRLLGEGGLRGYAPRRQLANTPAKDSTGKEVARPNNYAGALYDPRDETLDDWFDNDLSLFPSGFGFPREVAVPVDILDHDNNYELKVVVPGVKSKKDIDIEYHQNKNQILVSGEIPSTLNEESKDKVKVKESSSGKFKRVITLPDYPGVDADNIKADYANGVLTLTVPKLKPQKDGKNHVKKIEVSSQESWGN
notes: as for B3
Consider B7, for which the “dissociation temperature of the oligomer” value in series [2] is below 40 °C. Besides, in series [4], the exchange constant is 0.004 s⁻¹.

B8: Hsp26 S208E/S211E (natural protein, S. cerevisiae)
chain: MGSFNSPFFDFFDNINNEVDAFNRLLGEGGLRGYAPRRQLANTPAKDSTGKEVARPNNYAGALYDPRDETLDDWFDNDLSLFPSGFGFPRSVAVPVDILDHDNNYELKVVVPGVKSKKDIDIEYHQNKNQILVSGEIPSTLNEESKDKVKVKESSSGKFKRVITLPDYPGVDADNIKADYANGVLTLTVPKLKPQKDGKNHVKKIEVSEQEEWGN
notes: Hsp26 of S. cerevisiae, phospho-mimetic double mutant in pQE60::HSP26; also called CTR double mutant; source: E. coli HB101, purified (Q-Sepharose, Superdex200, Resource Q)
In the case of B8, the “dissociation temperature of the oligomer” value in series [2] is below 40 °C. For the same molecule, the exchange constant in series [4] was 0.0036 s⁻¹.

B9: Hsp26 S207E (natural protein, S. cerevisiae)
chain: MGSFNSPFFDFFDNINNEVDAFNRLLGEGGLRGYAPRRQLANTPAKDSTGKEVARPNNYAGALYDPRDETLDDWFDNDLSLFPSGFGFPRSVAVPVDILDHDNNYELKVVVPGVKSKKDIDIEYHQNKNQILVSGEIPSTLNEESKDKVKVKESSSGKFKRVITLPDYPGVDADNIKADYANGVLTLTVPKLKPQKDGKNHVKKIEVESQESWGN
notes: as for B3
Turning to B9, in series [3], the “fraction” value came out at 34.2% and the “stoichiometry N” value was determined as 40.

B10: Hsp26 S211E (natural protein, S. cerevisiae)
chain: MGSFNSPFFDFFDNINNEVDAFNRLLGEGGLRGYAPRRQLANTPAKDSTGKEVARPNNYAGALYDPRDETLDDWFDNDLSLFPSGFGFPRSVAVPVDILDHDNNYELKVVVPGVKSKKDIDIEYHQNKNQILVSGEIPSTLNEESKDKVKVKESSSGKFKRVITLPDYPGVDADNIKADYANGVLTLTVPKLKPQKDGKNHVKKIEVSSQEEWGN
notes: as for B3
As for B10, the binding result in series [7] is “binds”.

B11: Hsp26 S208E (natural protein, S. cerevisiae)
chain: MGSFNSPFFDFFDNINNEVDAFNRLLGEGGLRGYAPRRQLANTPAKDSTGKEVARPNNYAGALYDPRDETLDDWFDNDLSLFPSGFGFPRSVAVPVDILDHDNNYELKVVVPGVKSKKDIDIEYHQNKNQILVSGEIPSTLNEESKDKVKVKESSSGKFKRVITLPDYPGVDADNIKADYANGVLTLTVPKLKPQKDGKNHVKKIEVSEQESWGN
notes: as for B3
B11: the “dissociation temperature of the oligomer” value in series [2] is below 40 °C.

B12: Hsp26 S144E (natural protein, S. cerevisiae)
chain: MGSFNSPFFDFFDNINNEVDAFNRLLGEGGLRGYAPRRQLANTPAKDSTGKEVARPNNYAGALYDPRDETLDDWFDNDLSLFPSGFGFPRSVAVPVDILDHDNNYELKVVVPGVKSKKDIDIEYHQNKNQILVSGEIPSTLNEEEKDKVKVKESSSGKFKRVITLPDYPGVDADNIKADYANGVLTLTVPKLKPQKDGKNHVKKIEVSSQESWGN
notes: as for B3
As to B12, in series [2], the “dissociation temperature of the oligomer” value came out at 35.1 ± 0.1 °C. The molecule also returned an exchange constant in series [4] of 0.0032 s⁻¹.

B13: Hsp26 T163E (natural protein, S. cerevisiae)
chain: MGSFNSPFFDFFDNINNEVDAFNRLLGEGGLRGYAPRRQLANTPAKDSTGKEVARPNNYAGALYDPRDETLDDWFDNDLSLFPSGFGFPRSVAVPVDILDHDNNYELKVVVPGVKSKKDIDIEYHQNKNQILVSGEIPSTLNEESKDKVKVKESSSGKFKRVIELPDYPGVDADNIKADYANGVLTLTVPKLKPQKDGKNHVKKIEVSSQESWGN
notes: as for B3
In the case of B13, the “dissociation temperature of the oligomer” value in series [2] stood at 34.6 ± 0.9 °C. This molecule registered an exchange constant in series [4] of 0.0036 s⁻¹.

B14: Hsp26 S47E/T48E (natural protein, S. cerevisiae)
chain: MGSFNSPFFDFFDNINNEVDAFNRLLGEGGLRGYAPRRQLANTPAKDEEGKEVARPNNYAGALYDPRDETLDDWFDNDLSLFPSGFGFPRSVAVPVDILDHDNNYELKVVVPGVKSKKDIDIEYHQNKNQILVSGEIPSTLNEESKDKVKVKESSSGKFKRVITLPDYPGVDADNIKADYANGVLTLTVPKLKPQKDGKNHVKKIEVSSQESWGN
notes: Hsp26 of S. cerevisiae, phospho-mimetic double mutant in pQE60::HSP26; source: E. coli HB101, purified (Q-Sepharose, Superdex200, Resource Q)
In the case of B14, the “dissociation temperature of the oligomer” value in series [2] is 36.8 °C. In series [3], the “fraction” value was determined as 7.3% and the “stoichiometry N” value turned out to be 40. The exchange constant in series [4] was determined as 0.004 s⁻¹.

The values above are taken from article PMC8602628, “Phosphorylation activates the yeast small heat shock protein Hsp26 by weakening domain contacts in the oligomer ensemble” (Nature Communications, 2021).
